Data taken from paper PMC7124660.

Experiments:
[1] = molecular target: hemagglutinin of avian influenza virus H1N1 (avian influenza virus H1N1); experiment: ELISA
[2] = molecular target: hemagglutinin of avian influenza virus H5N1 (avian influenza virus H5N1); experiment: ELISA
hemagglutinin of avian influenza virus H5N1 (avian influenza virus H5N1), sequence (Q9Q0U6 17-568): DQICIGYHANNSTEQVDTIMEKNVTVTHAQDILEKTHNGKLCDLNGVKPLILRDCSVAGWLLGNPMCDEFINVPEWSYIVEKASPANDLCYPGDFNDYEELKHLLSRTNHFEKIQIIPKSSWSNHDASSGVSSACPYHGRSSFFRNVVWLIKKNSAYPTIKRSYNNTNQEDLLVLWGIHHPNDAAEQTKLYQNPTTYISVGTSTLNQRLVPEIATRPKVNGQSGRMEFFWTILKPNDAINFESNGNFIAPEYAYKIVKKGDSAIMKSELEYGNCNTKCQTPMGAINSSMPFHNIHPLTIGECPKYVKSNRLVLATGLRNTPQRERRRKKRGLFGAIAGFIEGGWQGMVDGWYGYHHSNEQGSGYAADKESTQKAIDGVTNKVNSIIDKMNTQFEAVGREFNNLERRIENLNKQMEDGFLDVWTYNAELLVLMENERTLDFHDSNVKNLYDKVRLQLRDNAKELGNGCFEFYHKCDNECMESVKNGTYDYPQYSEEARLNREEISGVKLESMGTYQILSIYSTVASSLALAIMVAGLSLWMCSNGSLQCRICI

Desialylated ovomucin (from UniProt Q98UI9;F1NBL0) (complex)
percent decrease of binding capacity against natural OVM [1]: 64.2% | percent decrease of binding capacity against natural OVM [2]: 71.5%
